Laboratory results: patent US20070179094A1 (Bayer, published 2007)

Target: Rabbit anti-human MDL-1 polyclonal antibodies
Experiment: cell-based or functional assay

B1: human MDL-1 extracellular domain protein expressed in baculovirus (receptor)
chain: PQIFNKSNDGFTTTRSYGTVSQIFGSSSPSPNGFITTRSYGTVCPKDWEFYQARCFFLSTSESSWNESRDFCKGKGSTLAIVNTPEKLKFLQDITDAEKYFIGLIYHREEKRWRWINNSVFNGNVTNQNQNFNCATIGLTKTFDAASCDISYRRICEKNAK
  IC50 for inhibition of α-hMDL-1 pAb-induced β-galactosidase reporter signaling in the CD3zH912Z1 line: 0.1 nM
